T1: His-E1 (Glycine max, UniProt I2FKG6 1-174)
T1 sequence: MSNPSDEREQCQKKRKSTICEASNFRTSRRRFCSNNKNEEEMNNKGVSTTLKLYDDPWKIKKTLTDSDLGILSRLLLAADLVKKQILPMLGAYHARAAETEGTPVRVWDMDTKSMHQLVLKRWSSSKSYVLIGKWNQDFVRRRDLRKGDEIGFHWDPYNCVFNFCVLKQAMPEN

B1: GmMDE06 Probe1 (dsDNA)
DNA 1: TAAAGTATAAGTTTACTAATGGAGTCCATGAGTTAAATTTATAAAACTCT
DNA 2: AGAGTTTTATAAATTTAACTCATGGACTCCATTAGTAAACTTATACTTTA
B2: GmMDE06 Probe2 (dsDNA)
DNA 1: GAATCAAGGGGTGAGACTCACGGTCATGACTCATGTAAATTCGTCTCCCA
DNA 2: TGGGAGACGAATTTACATGAGTCATGACCGTGAGTCTCACCCCTTGATTC
B3: Probe3 (dsDNA)
DNA 1: AGTTGATCAGCCCGAAATACTGCATGCACCTCACAAATTGACAAGTGCTT
DNA 2: AAGCACTTGTCAATTTGTGAGGTGCATGCAGTATTTCGGGCTGATCAACT
B4: Probe4 (dsDNA)
DNA 1: AGTCTTTGTTCTTACATGAGAAACACATGTATTTTTTTTATAGACATTAT
DNA 2: ATAATGTCTATAAAAAAAATACATGTGTTTCTCATGTAAGAACAAAGACT
B5: GsWRKY20 Probe5 (dsDNA)
DNA 1: TTTTTAATTTGTTAACTCGTTGACTCAGTGGTAAACTCGAAAGTC
DNA 2: GACTTTCGAGTTTACCACTGAGTCAACGAGTTAACAAATTAAAAA

target: T1, His-E1; assay: EMSA

Binding result, binds:
B1
B2
B3
B4
B5

Source: paper PMC9157081
